The text below walks through data of US20250222125A1, “Anti-FGFR2b Antibodies, Conjugates and Methods of Use” (BeiGene, Ltd., priority 2024, published 2025).

Test [1] concerns the target human FGFR2c on cells (human) (UniProt P21802). The experiment in a line: flow cytometry, Expi293 cells overexpressing human FGFR2c. On the technique in general: Flow cytometry measures light scatter and fluorescence of single cells or particles in a stream.
Test [2] has as its target soluble human FGFR2b protein (his tag, in-house generated) (human) (UniProt P21802). Put plainly: SPR (Biacore 8K), antibody captured by anti-human Fc, soluble human FGFR2b-his as analyte. In general terms: SPR reads the build-up and loss of mass on a sensor chip optically.
The target in test [3] is mouse FGFR2b on cells (mouse) (UniProt P21803). Put plainly: flow cytometry, Expi293 cells overexpressing mouse FGFR2b.
Test [4] deals with human FGFR2b protein (recombinant, coated on ELISA plates) (human) (UniProt P21802). The experiment in a line: ELISA, plate-coated human FGFR2b. Background: An ELISA detects its analyte on a solid surface through an enzyme-linked reagent.
human FGFR2b protein (recombinant, coated on ELISA plates) (human), sequence (P21802 other isoform, or with tags, fused parts or gaps limits assumed): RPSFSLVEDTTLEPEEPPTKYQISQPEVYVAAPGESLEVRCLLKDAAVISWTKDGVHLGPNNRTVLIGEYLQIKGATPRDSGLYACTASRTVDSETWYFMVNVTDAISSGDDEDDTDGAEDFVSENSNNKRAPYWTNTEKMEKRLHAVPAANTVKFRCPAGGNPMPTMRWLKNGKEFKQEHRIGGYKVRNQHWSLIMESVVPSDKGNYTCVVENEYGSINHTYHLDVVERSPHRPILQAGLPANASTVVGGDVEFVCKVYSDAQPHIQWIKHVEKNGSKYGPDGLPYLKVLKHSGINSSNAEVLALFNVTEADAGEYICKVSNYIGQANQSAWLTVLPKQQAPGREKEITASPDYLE
For test [5], the target named is soluble human FGFR2b protein (his tag, in-house generated) (human) (UniProt P21802). Put plainly: SPR, antibody captured by anti-human Fc, human FGFR2b.
The target in test [6] is human FGFR2b on cells (human) (UniProt P21802). The experiment in a line: flow cytometry, Expi293 cells overexpressing human FGFR2b.
human FGFR2b on cells (human), sequence (P21802 other isoform, or with tags, fused parts or gaps limits assumed): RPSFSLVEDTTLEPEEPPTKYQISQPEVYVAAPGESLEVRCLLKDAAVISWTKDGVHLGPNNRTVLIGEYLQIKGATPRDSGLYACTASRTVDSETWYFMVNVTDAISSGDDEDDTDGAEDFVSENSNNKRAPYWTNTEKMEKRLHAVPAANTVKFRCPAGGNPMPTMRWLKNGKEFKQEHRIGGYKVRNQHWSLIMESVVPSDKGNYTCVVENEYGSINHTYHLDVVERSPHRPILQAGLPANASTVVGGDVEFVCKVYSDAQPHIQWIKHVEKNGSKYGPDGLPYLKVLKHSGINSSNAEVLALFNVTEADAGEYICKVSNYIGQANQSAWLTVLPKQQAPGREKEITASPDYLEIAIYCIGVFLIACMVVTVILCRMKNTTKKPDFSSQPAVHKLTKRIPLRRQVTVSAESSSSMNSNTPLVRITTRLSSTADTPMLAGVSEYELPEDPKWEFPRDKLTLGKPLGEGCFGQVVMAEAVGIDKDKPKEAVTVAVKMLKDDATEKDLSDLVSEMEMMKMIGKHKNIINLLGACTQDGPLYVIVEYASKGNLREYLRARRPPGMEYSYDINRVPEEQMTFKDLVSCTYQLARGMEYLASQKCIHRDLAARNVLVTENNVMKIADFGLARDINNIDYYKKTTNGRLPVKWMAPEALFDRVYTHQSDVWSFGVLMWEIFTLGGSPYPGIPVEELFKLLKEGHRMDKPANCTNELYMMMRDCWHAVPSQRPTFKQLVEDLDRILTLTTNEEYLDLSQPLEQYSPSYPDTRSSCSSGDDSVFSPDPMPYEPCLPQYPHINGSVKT
Test [7] deals with human FGFR2c protein (recombinant, coated on ELISA plates) (human) (UniProt P21802). Put plainly: ELISA, plate-coated human FGFR2c.
Test [8] concerns the target human FGFR2b on cells (human) (UniProt P21802). The experiment in a line: flow cytometry, human FGFR2b OE cells.
Test [9] addresses human FGFR2b protein (recombinant, coated on ELISA plates) (human) (UniProt P21802). The experiment in a line: ELISA, plate-coated human FGFR2b. The source holds these as a separate data set.
Test [10] addresses mouse FGFR2b on cells (mouse) (UniProt P21803). The experiment in a line: flow cytometry, murine FGFR2b OE cells.
Test [11] has as its target human FGFR2c on cells (human) (UniProt P21802). The experiment in a line: flow cytometry, human FGFR2c OE cells.

Where two headings read alike, the source gives them in different places.

human FGFR2c on cells (human), sequence (P21802 22-821): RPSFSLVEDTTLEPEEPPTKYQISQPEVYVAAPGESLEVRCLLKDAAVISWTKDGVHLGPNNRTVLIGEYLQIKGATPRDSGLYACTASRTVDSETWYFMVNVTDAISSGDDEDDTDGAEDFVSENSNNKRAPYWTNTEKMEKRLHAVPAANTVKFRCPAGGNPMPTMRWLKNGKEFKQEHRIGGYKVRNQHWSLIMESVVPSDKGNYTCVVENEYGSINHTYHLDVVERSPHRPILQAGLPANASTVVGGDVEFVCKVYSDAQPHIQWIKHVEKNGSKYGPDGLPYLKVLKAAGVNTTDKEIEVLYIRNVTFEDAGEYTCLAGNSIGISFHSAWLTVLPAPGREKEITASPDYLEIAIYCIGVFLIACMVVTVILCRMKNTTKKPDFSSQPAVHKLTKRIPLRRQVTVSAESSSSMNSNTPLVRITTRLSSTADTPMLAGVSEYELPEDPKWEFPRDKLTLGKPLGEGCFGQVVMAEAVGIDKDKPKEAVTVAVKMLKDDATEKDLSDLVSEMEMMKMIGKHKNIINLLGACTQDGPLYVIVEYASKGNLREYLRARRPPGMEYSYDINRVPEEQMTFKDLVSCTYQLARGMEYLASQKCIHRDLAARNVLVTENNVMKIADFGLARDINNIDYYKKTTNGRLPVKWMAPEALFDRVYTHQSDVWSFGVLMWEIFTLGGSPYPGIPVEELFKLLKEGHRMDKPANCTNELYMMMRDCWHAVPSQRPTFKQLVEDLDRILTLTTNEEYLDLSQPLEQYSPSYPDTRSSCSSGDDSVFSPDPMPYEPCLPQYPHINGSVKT

B1: BGAh9179 (antibody, human IgG1, kappa, V domains shown)
VH: QVQLVQSGAEVKKPGASVKVSCKASGYTITDTYIHWVRQAPGQGLEWMGRIDPAEGNTMFASEFQGRVTMTADTSTSTVYMELSSLRSEDTAVYYCARSKIHYDYDEGFAYWGQGTLVTVSS
VL: DIVLTQSPDSLAVSLGERATINCRASESVDDYGYSFLHWYQQKPGQPPKLLIYRASNLESGVPDRFSGSGSGTDFTLTISSLQAEDVAVYYCQQSNQNPRTFGGGTKVEIKR
Turning to B1, the Emax (MFI) in test [1] was found to be 21700 MFI; in test [3] it was 5.15e+06 MFI; in test [6], 2.98e+06 MFI. Further, the figures for the Kd in test [2] and in test [5] were 13.9 nM and 21.8 nM, respectively. In addition, the koff in [2] is 0.00112 s⁻¹; in [5] it was 0.00178 s⁻¹. Besides, the on-rate constant (kon) in [2] is 80600 M⁻¹ s⁻¹; in test [5], 81600 M⁻¹ s⁻¹. Moreover, the concentration giving a half-maximal response (EC50) in test [3] stood at 4.25 nM; in [4] it was 0.0518 nM; in test [6], 3.29 nM. Further, the Emax (A450) in [4] came to 2.99 A450; in test [7], 0.086 A450.

B2: BGAm1823 (antibody, V domains shown)
VH: EVQLQQSGAELVKPGASVKISCKASGYAFSIYWMNWVKQRPGKGLEWIGQIYPENGDTNYNGKFKGKATLTADKSSSTAYMHLSSLTSEDSAVYFCARGGFDYWGQGTTLTVSS
VL: NIVMTQSPASLSASVGETVTITCRASENIYSNLAWYQQKQGKSPQLLVYTATNLADGVPSRFSGSGSGTQFSLKINSLQPEDFGSYYCQHFYGILYTFGSGTRLEIK
Turning to B2, in test [1], the Emax (MFI) was found to be 22600 MFI. In [3], this molecule came in with an EC50 of 3.37 nM and an Emax (MFI) of 5.19e+06 MFI. In test [4], the EC50 was determined as 0.0442 nM and the Emax (A450) is 2.95 A450. In [5], this molecule registered a dissociation constant Kd of 24.2 nM, a koff of 0.00185 s⁻¹ and a kon of 76300 M⁻¹ s⁻¹. Also, in test [6], the EC50 turned out to be 2.12 nM and the Emax (MFI) is 3.09e+06 MFI. Also, the Emax (A450) in test [7] is 0.116 A450.

B3: BGA1421 (antibody, human IgG1, kappa, V domains shown)
VH: QVQLVQSGAEVKKPGSSVKVSCKASGYIFTTYNVHWVRQAPGQGLEWIGSIYPDNGDTSYNQNFKGRATITADKSTSTAYMELSSLRSEDTAVYYCARGDFAYWGQGTLVTVSS
VL: DIQMTQSPSSLSASVGDRVTITCKASQGVSNDVAWYQQKPGKAPKLLIYSASYRYTGVPSRFSGSGSGTDFTFTISSLQPEDIATYYCQQHSTTPYTFGQGTKLEIKR
The molecule B3 had a 50% effective concentration (EC50) in test [8] of 0.48 nM. For the same molecule, in test [2], the Kd was 22.2 nM, the koff came to 0.00232 s⁻¹ and the kon stood at 104000 M⁻¹ s⁻¹. In test [9], the EC50 stood at 0.61 nM and the Emax (OD450) came out at 2.62 OD450. For the same molecule, the EC50 in test [10] amounted to 0.81 nM. The molecule further showed an Emax (MFI) in test [11] of 40 MFI. Moreover, in test [7], the Emax (OD450) is 0.09 OD450.

B4: BGAh9239 (antibody, human IgG1, kappa, V domains shown)
VH: QVQLVQSGAEVKKPGSSVKVSCKASGYTFSIYWLNWVRQAPGQGLEWMGQIYPENADTNYSGKFKGRVTITADKSTSTAYMELSSLRSEDTAVYFCARGGFDYWGQGTLVTVSS
VL: DIQMTQSPSSLSASVGDRVTITCRASENIYSNLAWYQQKPGKAPKLLIYTATNLAEGVPSRFSGSGSGTDFTLTISSLQPEDFATYYCQHFYGILYTFGQGTRLEIKR
In the case of B4, the Emax (MFI) in test [1] turned out to be 23800 MFI; in [3] it was 5.1e+06 MFI; in test [6], 3.08e+06 MFI; in test [11], 36 MFI. The EC50 is 1.84 nM in test [8]; 2.67 nM in test [3]; 0.031 nM in [4]; 0.26 nM in test [9]; 1.59 nM in test [10]; 2.4 nM in test [6]. Further, the Kd in test [2] was found to be 24.7 nM; in test [5], 37.3 nM. Besides, the koff was found to be 0.00189 s⁻¹ in [2] and 0.003 s⁻¹ in test [5]. In addition, the kon was found to be 76600 M⁻¹ s⁻¹ in test [2] and 80500 M⁻¹ s⁻¹ in test [5]. The Emax (A450) stood at 2.94 A450 in test [4] and 0.13 A450 in [7]. Besides, the values for the Emax (OD450) in test [9] and in [7] were 3.37 OD450 and 0.07 OD450, respectively.

B5: BGAm1371 (antibody, V domains shown)
VH: QVQLKQSGAELVKPGASVKLSCTASGFNIKDTYIHWVKQRPEQGLEWIGRIDPANGNTMFASEFQGKATITAYTSSNTAYMQLSSLTSGDTAVYYCARSKIHYDYDEGFAYWGQGTLVTVSS
VL: NIVLTQSPPSLAVSLGQRATVSCRASESVDDYGYSFLHWYQQKPGQPPKLLIYRASNLESGIPARFSGSGSRTDFTLTINPVETDDVATYYCQQSNQNPRTFGGGTKLEIK
Consider B5, for which the Emax (MFI) in test [1] is 23100 MFI; in test [3], 4.98e+06 MFI; in test [6] it was 3.05e+06 MFI; in test [11], 33 MFI. For the same molecule, the EC50 in test [8] stood at 1.25 nM; in test [3], 3.5 nM; in test [4], 0.0309 nM; in test [9] it was 0.19 nM; in test [10], 1.78 nM; in [6], 1.5 nM. For the same molecule, the Emax (A450) was 3.01 A450 in [4] and 0.204 A450 in [7]. The Emax (OD450) in test [9] was 3.35 OD450; in test [7], 0.07 OD450. Moreover, in test [5], the dissociation constant Kd came to 16.3 nM. Further, the koff in test [5] was found to be 0.00119 s⁻¹. Further, the association rate constant (kon) in [5] was 72900 M⁻¹ s⁻¹.

The Kd is a measure of binding affinity in units of concentration. A low value points to higher affinity. Usually koff stands for the first-order rate constant of dissociation. The low end stands for a long-lived complex, the high end for a short-lived complex. By kon is commonly meant the second-order rate constant of association. The EC50 is the concentration that produces a half-maximal response.
